Laboratory results taken from article PMC4914107 (Nucleic Acids Research, 2016).

Tests used:
[1] = molecular target: T1, 2XMBP-BRC4-DBD (Homo sapiens, UniProt P51587;P51587 1496-1589;2153-3418); assay: EMSA
T1 chain 1: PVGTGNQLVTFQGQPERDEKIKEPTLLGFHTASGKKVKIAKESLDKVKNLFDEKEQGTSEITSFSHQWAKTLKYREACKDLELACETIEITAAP
T1 chain 2: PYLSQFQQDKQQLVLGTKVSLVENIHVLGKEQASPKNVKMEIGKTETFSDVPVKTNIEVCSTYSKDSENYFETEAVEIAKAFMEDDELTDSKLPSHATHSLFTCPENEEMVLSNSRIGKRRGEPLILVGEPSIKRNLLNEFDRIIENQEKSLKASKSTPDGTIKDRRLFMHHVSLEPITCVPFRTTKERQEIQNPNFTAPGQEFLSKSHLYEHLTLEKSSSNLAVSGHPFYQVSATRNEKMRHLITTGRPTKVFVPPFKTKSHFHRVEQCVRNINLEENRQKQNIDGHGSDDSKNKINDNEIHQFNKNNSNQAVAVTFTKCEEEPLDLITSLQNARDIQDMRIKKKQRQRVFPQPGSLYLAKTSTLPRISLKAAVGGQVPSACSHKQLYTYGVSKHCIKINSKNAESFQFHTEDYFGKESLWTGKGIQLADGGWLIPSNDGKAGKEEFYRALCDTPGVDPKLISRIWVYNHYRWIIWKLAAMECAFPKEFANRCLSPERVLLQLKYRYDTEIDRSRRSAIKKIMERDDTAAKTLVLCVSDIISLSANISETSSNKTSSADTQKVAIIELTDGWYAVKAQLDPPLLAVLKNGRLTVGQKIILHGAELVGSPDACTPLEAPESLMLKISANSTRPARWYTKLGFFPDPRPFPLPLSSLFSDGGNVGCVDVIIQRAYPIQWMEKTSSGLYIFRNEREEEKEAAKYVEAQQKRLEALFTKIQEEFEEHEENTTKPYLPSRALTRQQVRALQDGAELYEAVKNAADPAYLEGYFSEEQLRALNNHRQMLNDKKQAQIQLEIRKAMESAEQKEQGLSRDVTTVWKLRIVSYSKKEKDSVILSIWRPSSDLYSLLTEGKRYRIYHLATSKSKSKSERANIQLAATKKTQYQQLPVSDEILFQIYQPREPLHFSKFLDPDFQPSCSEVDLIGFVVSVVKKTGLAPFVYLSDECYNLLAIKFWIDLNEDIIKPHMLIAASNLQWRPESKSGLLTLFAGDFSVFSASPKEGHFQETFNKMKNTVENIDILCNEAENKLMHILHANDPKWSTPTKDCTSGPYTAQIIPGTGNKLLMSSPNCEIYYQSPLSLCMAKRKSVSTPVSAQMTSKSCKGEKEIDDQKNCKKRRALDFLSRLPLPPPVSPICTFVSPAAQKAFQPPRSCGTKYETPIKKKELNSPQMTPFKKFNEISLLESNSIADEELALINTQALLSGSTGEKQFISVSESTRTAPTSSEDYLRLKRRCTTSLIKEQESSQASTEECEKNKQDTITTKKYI

[2] = molecular target: 2XMBP-BRC1-8-DBD (Homo sapiens, UniProt P51587 993-3418); assay: EMSA
[3] = molecular target: T2, 2XMBP-BRC1-4-DBD (Homo sapiens, UniProt P51587;P51587 993-1589;2153-3418); assay: EMSA
T2 chain 1: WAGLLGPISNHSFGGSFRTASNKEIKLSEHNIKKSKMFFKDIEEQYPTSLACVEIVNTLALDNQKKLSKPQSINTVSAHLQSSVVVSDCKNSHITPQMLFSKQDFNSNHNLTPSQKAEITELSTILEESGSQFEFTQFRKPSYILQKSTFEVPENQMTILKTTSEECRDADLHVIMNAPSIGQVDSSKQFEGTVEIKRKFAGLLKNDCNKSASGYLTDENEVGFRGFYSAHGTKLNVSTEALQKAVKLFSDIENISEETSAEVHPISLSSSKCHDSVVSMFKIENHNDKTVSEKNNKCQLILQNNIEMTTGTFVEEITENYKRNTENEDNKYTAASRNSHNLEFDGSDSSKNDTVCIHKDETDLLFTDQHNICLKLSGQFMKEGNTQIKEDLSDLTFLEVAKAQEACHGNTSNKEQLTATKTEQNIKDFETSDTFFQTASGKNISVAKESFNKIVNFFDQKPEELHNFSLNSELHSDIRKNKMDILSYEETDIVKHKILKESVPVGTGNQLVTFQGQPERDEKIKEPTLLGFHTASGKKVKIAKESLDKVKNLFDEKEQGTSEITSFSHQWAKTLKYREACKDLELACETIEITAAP
T2 chain 2: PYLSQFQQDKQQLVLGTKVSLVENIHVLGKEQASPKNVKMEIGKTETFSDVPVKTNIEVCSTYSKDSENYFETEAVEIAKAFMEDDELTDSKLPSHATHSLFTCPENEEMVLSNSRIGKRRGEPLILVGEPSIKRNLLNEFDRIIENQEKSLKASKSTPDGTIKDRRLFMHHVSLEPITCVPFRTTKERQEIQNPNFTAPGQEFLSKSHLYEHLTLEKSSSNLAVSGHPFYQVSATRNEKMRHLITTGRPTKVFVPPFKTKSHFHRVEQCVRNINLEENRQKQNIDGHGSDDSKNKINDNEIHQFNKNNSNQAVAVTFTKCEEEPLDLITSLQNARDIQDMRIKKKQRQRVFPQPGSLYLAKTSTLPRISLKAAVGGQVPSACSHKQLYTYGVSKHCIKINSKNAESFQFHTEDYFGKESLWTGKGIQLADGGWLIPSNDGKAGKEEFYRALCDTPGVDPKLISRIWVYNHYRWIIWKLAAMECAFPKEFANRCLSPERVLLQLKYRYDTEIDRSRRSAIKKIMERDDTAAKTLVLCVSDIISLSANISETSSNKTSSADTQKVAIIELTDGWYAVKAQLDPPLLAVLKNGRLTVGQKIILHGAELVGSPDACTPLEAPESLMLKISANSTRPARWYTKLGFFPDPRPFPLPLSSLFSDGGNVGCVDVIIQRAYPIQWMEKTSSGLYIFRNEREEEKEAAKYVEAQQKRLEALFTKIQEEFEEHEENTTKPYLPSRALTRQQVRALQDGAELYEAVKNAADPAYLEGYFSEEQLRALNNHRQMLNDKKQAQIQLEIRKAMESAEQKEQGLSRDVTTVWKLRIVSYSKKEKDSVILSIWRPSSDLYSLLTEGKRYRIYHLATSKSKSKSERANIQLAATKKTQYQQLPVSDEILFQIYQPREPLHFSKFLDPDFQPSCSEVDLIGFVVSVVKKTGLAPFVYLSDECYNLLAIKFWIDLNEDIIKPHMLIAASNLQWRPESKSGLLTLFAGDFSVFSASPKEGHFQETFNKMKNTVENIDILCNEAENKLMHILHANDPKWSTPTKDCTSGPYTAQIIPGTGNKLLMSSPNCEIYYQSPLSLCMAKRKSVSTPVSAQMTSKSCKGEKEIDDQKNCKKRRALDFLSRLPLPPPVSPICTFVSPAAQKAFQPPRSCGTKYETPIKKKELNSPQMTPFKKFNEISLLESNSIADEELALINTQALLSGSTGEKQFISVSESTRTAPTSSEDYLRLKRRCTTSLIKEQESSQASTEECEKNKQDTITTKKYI

[4] = molecular target: T3, 2XMBP-BRCA2 DBD (Homo sapiens, UniProt P51587 2153-3418); assay: EMSA
T3 sequence: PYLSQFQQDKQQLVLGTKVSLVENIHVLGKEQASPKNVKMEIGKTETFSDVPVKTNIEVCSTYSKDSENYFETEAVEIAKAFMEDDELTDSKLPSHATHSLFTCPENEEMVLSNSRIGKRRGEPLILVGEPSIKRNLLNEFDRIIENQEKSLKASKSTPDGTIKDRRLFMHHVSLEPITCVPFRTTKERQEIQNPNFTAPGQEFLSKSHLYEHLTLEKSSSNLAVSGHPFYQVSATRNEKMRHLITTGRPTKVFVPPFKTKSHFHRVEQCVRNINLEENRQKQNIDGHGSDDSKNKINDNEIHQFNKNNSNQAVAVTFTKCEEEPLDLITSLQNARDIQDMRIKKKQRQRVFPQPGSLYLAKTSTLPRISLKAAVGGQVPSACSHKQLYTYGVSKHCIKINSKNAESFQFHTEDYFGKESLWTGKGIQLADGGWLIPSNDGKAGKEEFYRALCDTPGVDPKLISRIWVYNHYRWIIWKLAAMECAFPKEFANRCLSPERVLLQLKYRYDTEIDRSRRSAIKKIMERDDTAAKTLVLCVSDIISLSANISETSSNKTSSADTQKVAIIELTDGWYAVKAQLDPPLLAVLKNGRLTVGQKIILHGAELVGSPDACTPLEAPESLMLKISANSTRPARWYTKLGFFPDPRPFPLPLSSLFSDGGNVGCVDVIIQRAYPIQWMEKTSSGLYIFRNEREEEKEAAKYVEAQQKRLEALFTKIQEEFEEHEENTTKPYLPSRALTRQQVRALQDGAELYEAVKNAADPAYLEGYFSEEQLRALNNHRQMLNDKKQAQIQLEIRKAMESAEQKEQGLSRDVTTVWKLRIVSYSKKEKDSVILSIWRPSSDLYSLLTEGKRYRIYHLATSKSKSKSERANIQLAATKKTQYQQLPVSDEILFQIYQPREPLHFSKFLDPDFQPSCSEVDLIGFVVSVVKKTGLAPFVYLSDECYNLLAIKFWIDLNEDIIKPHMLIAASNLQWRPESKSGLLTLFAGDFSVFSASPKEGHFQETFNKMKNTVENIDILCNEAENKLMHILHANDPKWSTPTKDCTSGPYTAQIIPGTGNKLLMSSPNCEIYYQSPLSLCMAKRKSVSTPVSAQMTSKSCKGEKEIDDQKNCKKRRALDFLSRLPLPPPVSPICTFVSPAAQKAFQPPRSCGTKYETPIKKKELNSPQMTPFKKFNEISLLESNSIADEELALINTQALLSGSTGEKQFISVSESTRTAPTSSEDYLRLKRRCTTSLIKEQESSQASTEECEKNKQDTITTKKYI

[5] = molecular target: 2XMBP-BRC5-8-DBD (Homo sapiens, UniProt P51587 1596-3418); assay: EMSA
[6] = molecular target: RAD51;2XMBP-BRC1-8-DBD (Homo sapiens;Homo sapiens, UniProt Q06609;P51587 1-339;993-3418, |); assay: pull-down
Sequence of RAD51;2XMBP-BRC1-8-DBD (Q06609 whole entry, one chain of several): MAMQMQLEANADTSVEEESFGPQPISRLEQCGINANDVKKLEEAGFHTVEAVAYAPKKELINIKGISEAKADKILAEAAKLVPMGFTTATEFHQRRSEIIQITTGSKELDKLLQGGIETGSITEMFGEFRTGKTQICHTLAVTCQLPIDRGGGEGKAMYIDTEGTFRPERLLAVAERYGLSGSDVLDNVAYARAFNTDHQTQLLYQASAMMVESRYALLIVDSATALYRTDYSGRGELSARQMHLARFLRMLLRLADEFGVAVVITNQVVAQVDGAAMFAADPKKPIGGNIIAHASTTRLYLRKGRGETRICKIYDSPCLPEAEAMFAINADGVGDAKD

[7] = molecular target: RAD51;2XMBP-BRC5-8-DBD (Homo sapiens;Homo sapiens, UniProt Q06609;P51587 1-339;1596-3418, |); assay: pull-down
Sequence of RAD51;2XMBP-BRC5-8-DBD (Q06609 whole entry, one chain of several): as above

[8] = molecular target: T3, 2XMBP-BRCA2 DBD; assay: pull-down
[9] = molecular target: RAD51;2XMBP-BRC1-4-DBD (Homo sapiens;Homo sapiens, UniProt Q06609;P51587;P51587 1-339;993-1589;2153-3418, |); assay: pull-down
Sequence of RAD51;2XMBP-BRC1-4-DBD (Q06609 whole entry, one chain of several): as above

Measured: binding result

B1: 3' tail DNA (RJ-167-mer / RJ-PHIX-42-1) (mixed)
DNA 1: CTGCTTTATCAAGATAATTTTTCGACTCATCAGAAATATCCGTTTCCTATATTTATTCCTATTATGTTTTATTCATTTACTTATTCTTTATGTTCATTTTTTATATCCTTTACTTTATTTTCTCTGTTTATTCATTTACTTATTTTGTATTATCCTTATCTTATTTA
DNA 2: CGGATATTTCTGATGAGTCGAAAAATTATCTTGATAAAGCAG
binds: [1] | [2] | [3] | [4] | [5]

B2: biotinylated ssDNA RJ-167-mer (ssDNA)
DNA: CTGCTTTATCAAGATAATTTTTCGACTCATCAGAAATATCCGTTTCCTATATTTATTCCTATTATGTTTTATTCATTTACTTATTCTTTATGTTCATTTTTTATATCCTTTACTTTATTTTCTCTGTTTATTCATTTACTTATTTTGTATTATCCTTATCTTATTTA
binds: [6] | [7] | [8] | [9]
